Experiment [1] deals with T1, FcγRIIb extracellular domain with C-terminal His tag (human, UniProt P31994 43-217).
T1 construct: extracellular domain; Expressed in FreeStyle293 cells; analyte in the Biacore assay; also called FcgRIIb; 2b; not shown: His tag at the C terminus
T1 sequence (looked up): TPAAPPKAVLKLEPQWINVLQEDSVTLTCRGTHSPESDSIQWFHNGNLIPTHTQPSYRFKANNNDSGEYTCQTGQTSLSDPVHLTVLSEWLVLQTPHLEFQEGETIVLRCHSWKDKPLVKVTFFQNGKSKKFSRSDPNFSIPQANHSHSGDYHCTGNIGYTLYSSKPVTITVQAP
Description: SPR (Biacore), antibody captured on antigen-peptide chip, FcγR as analyte; relative binding.

Experiment [2] has as its target T2, FcγRIa extracellular domain with C-terminal His tag (human, UniProt P12314 16-292).
T2 construct: extracellular domain; Expressed in FreeStyle293 cells; analyte in the Biacore assay; also called FcgRI; 1a; not shown: His tag at the C terminus
Described as above.

T2 sequence (P12314 16-292): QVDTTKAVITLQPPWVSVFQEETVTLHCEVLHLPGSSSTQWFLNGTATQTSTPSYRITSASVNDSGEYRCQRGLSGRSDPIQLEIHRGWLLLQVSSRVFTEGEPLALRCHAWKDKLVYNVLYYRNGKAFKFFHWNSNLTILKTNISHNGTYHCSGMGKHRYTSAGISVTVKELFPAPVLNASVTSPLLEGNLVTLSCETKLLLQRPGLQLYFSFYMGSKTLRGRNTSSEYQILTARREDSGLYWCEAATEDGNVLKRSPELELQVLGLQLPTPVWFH

B1: GpH7-A5/GpH7-B3 variant H268_07I/GpL16-k0 (He Ab) (antibody, human IgG1, kappa)
heavy 1: not shown
heavy 2: not shown
light: DIVMTQSPLSLPVTPGEPASISCQASESLVHSNRNTYLHWYLQKPGQSPQLLIYKVSNRFSGVPDRFSGSGSGTDFTLKISRVEAEDVGVYYCSQNTHVPPTFGQGTKVEIERTVAAPSVFIFPPSDEQLKSGTASVVCLLNNFYPREAKVQWKVDNALQSGNSQESVTEQDSKDSTYSLSSTLTLSKADYEKHKVYACEVTHQGLSSPVTKSFNRGEC
notes: Heterodimerized anti-glypican-3 IgG1; the mutation stands in the GpH7-B3 chain only
For B1, the He/Con_2b in experiment [1] was 88.9 % of GpH7-A5/GpH7-B3/GpL16-k0 (=100). In experiment [2], the He/Con_1a is 108 % of GpH7-A5/GpH7-B3/GpL16-k0 (=100).

B2: GpH7-A5/GpH7-B3 variant Y300_07I/GpL16-k0 (He Ab) (antibody, human IgG1, kappa)
heavy 1: not shown
heavy 2: not shown
light: DIVMTQSPLSLPVTPGEPASISCQASESLVHSNRNTYLHWYLQKPGQSPQLLIYKVSNRFSGVPDRFSGSGSGTDFTLKISRVEAEDVGVYYCSQNTHVPPTFGQGTKVEIERTVAAPSVFIFPPSDEQLKSGTASVVCLLNNFYPREAKVQWKVDNALQSGNSQESVTEQDSKDSTYSLSSTLTLSKADYEKHKVYACEVTHQGLSSPVTKSFNRGEC
notes: as for B1
As to B2, the He/Con_2b in experiment [1] was 74.5 % of GpH7-A5/GpH7-B3/GpL16-k0 (=100). The He/Con_1a in experiment [2] is 108 % of GpH7-A5/GpH7-B3/GpL16-k0 (=100).

B3: GpH7-A5/GpH7-B3 variant E269_18N/GpL16-k0 (He Ab) (antibody, human IgG1, kappa)
heavy 1: not shown
heavy 2: not shown
light: DIVMTQSPLSLPVTPGEPASISCQASESLVHSNRNTYLHWYLQKPGQSPQLLIYKVSNRFSGVPDRFSGSGSGTDFTLKISRVEAEDVGVYYCSQNTHVPPTFGQGTKVEIERTVAAPSVFIFPPSDEQLKSGTASVVCLLNNFYPREAKVQWKVDNALQSGNSQESVTEQDSKDSTYSLSSTLTLSKADYEKHKVYACEVTHQGLSSPVTKSFNRGEC
notes: as for B1
Regarding B3, the He/Con_2b in experiment [1] was 44.8 % of GpH7-A5/GpH7-B3/GpL16-k0 (=100). The He/Con_1a in experiment [2] is 102 % of GpH7-A5/GpH7-B3/GpL16-k0 (=100).

B4: GpH7-A5/GpH7-B3 variant E269_15Y/GpL16-k0 (He Ab) (antibody, human IgG1, kappa)
heavy 1: not shown
heavy 2: not shown
light: DIVMTQSPLSLPVTPGEPASISCQASESLVHSNRNTYLHWYLQKPGQSPQLLIYKVSNRFSGVPDRFSGSGSGTDFTLKISRVEAEDVGVYYCSQNTHVPPTFGQGTKVEIERTVAAPSVFIFPPSDEQLKSGTASVVCLLNNFYPREAKVQWKVDNALQSGNSQESVTEQDSKDSTYSLSSTLTLSKADYEKHKVYACEVTHQGLSSPVTKSFNRGEC
notes: as for B1
As for B4, the He/Con_2b in experiment [1] was 44.7 % of GpH7-A5/GpH7-B3/GpL16-k0 (=100). The He/Con_1a in experiment [2] is 106 % of GpH7-A5/GpH7-B3/GpL16-k0 (=100).

B5: GpH7-A5/GpH7-B3 variant Y300_02A/GpL16-k0 (He Ab) (antibody, human IgG1, kappa)
heavy 1: not shown
heavy 2: not shown
light: DIVMTQSPLSLPVTPGEPASISCQASESLVHSNRNTYLHWYLQKPGQSPQLLIYKVSNRFSGVPDRFSGSGSGTDFTLKISRVEAEDVGVYYCSQNTHVPPTFGQGTKVEIERTVAAPSVFIFPPSDEQLKSGTASVVCLLNNFYPREAKVQWKVDNALQSGNSQESVTEQDSKDSTYSLSSTLTLSKADYEKHKVYACEVTHQGLSSPVTKSFNRGEC
notes: as for B1
B5: in experiment [1], the He/Con_2b was 69.2 % of GpH7-A5/GpH7-B3/GpL16-k0 (=100). In addition, the He/Con_1a in experiment [2] was 112 % of GpH7-A5/GpH7-B3/GpL16-k0 (=100).

B6: GpH7-A5/GpH7-B3 variant Y300_06M/GpL16-k0 (He Ab) (antibody, human IgG1, kappa)
heavy 1: not shown
heavy 2: not shown
light: DIVMTQSPLSLPVTPGEPASISCQASESLVHSNRNTYLHWYLQKPGQSPQLLIYKVSNRFSGVPDRFSGSGSGTDFTLKISRVEAEDVGVYYCSQNTHVPPTFGQGTKVEIERTVAAPSVFIFPPSDEQLKSGTASVVCLLNNFYPREAKVQWKVDNALQSGNSQESVTEQDSKDSTYSLSSTLTLSKADYEKHKVYACEVTHQGLSSPVTKSFNRGEC
notes: as for B1
Consider B6, for which the He/Con_2b in experiment [1] was 84.3 % of GpH7-A5/GpH7-B3/GpL16-k0 (=100). Further, the He/Con_1a in experiment [2] was 112 % of GpH7-A5/GpH7-B3/GpL16-k0 (=100).

B7: GpH7-A5/GpH7-B3 variant H268_11K/GpL16-k0 (He Ab) (antibody, human IgG1, kappa)
heavy 1: not shown
heavy 2: not shown
light: DIVMTQSPLSLPVTPGEPASISCQASESLVHSNRNTYLHWYLQKPGQSPQLLIYKVSNRFSGVPDRFSGSGSGTDFTLKISRVEAEDVGVYYCSQNTHVPPTFGQGTKVEIERTVAAPSVFIFPPSDEQLKSGTASVVCLLNNFYPREAKVQWKVDNALQSGNSQESVTEQDSKDSTYSLSSTLTLSKADYEKHKVYACEVTHQGLSSPVTKSFNRGEC
notes: as for B1
Take B7: in experiment [1], the He/Con_2b was 83 % of GpH7-A5/GpH7-B3/GpL16-k0 (=100). In addition, the He/Con_1a in experiment [2] is 106 % of GpH7-A5/GpH7-B3/GpL16-k0 (=100).

B8: GpH7-A5/GpH7-B3 variant Y300_01G/GpL16-k0 (He Ab) (antibody, human IgG1, kappa)
heavy 1: not shown
heavy 2: not shown
light: DIVMTQSPLSLPVTPGEPASISCQASESLVHSNRNTYLHWYLQKPGQSPQLLIYKVSNRFSGVPDRFSGSGSGTDFTLKISRVEAEDVGVYYCSQNTHVPPTFGQGTKVEIERTVAAPSVFIFPPSDEQLKSGTASVVCLLNNFYPREAKVQWKVDNALQSGNSQESVTEQDSKDSTYSLSSTLTLSKADYEKHKVYACEVTHQGLSSPVTKSFNRGEC
notes: as for B1
Consider B8, for which, in experiment [1], the He/Con_2b is 48.4 % of GpH7-A5/GpH7-B3/GpL16-k0 (=100). Moreover, the He/Con_1a in experiment [2] was 116 % of GpH7-A5/GpH7-B3/GpL16-k0 (=100).

B9: GpH7-A5/GpH7-B3 variant H268_08L/GpL16-k0 (He Ab) (antibody, human IgG1, kappa)
heavy 1: not shown
heavy 2: not shown
light: DIVMTQSPLSLPVTPGEPASISCQASESLVHSNRNTYLHWYLQKPGQSPQLLIYKVSNRFSGVPDRFSGSGSGTDFTLKISRVEAEDVGVYYCSQNTHVPPTFGQGTKVEIERTVAAPSVFIFPPSDEQLKSGTASVVCLLNNFYPREAKVQWKVDNALQSGNSQESVTEQDSKDSTYSLSSTLTLSKADYEKHKVYACEVTHQGLSSPVTKSFNRGEC
notes: as for B1
For the molecule B9, the He/Con_2b in experiment [1] was 67.8 % of GpH7-A5/GpH7-B3/GpL16-k0 (=100). The He/Con_1a in experiment [2] is 107 % of GpH7-A5/GpH7-B3/GpL16-k0 (=100).

B10: GpH7-A5/GpH7-B3 variant S298_19Q/GpL16-k0 (He Ab) (antibody, human IgG1, kappa)
heavy 1: not shown
heavy 2: not shown
light: DIVMTQSPLSLPVTPGEPASISCQASESLVHSNRNTYLHWYLQKPGQSPQLLIYKVSNRFSGVPDRFSGSGSGTDFTLKISRVEAEDVGVYYCSQNTHVPPTFGQGTKVEIERTVAAPSVFIFPPSDEQLKSGTASVVCLLNNFYPREAKVQWKVDNALQSGNSQESVTEQDSKDSTYSLSSTLTLSKADYEKHKVYACEVTHQGLSSPVTKSFNRGEC
notes: as for B1
In the case of B10, in experiment [1], the He/Con_2b was 73.3 % of GpH7-A5/GpH7-B3/GpL16-k0 (=100). For the same molecule, the He/Con_1a in experiment [2] was 109 % of GpH7-A5/GpH7-B3/GpL16-k0 (=100).

The values are drawn from patent US20180155451A1 (published 2018).
